In publication PMC7417313, “Characterization of Binding Properties of Individual Functional Sites of Human Complement Factor H” (Frontiers in Immunology, 2020) one finds Kd data, which are given here for one molecule.

The assay has as its target T1, C3b (human).
T1 construct: human complement C3, beta chain, as in C3b; human complement C3, alpha' chain of C3b (alpha chain without C3a); Mr 176,000 used; also called soluble C3b; fluid phase C3b
Nature of the assay: SPR; His-tagged rH fragment held on a Ni-charged NTA chip (BIAcore X or 3000; 500-1,000 RU, reloaded for each injection), C3 protein injected in HBS-P (10 mM HEPES pH 7.4, 150 mM NaCl, 0.005% P20) at 5 μL/min, 25°C; reference cell with nickel only; equilibrium levels fitted to a one-site equation. To be noted: both partners purified.

B1: recombinant Factor H fragment rH 6-15 (domain or fragment)
chain: PCDYPDIKHGGLYHENMRRPYFPVAVGKYYSYYCDEHFETPSGSYWDHIHCTQDGWSPAVPCLRKCYFPYLENGYNQNYGRKFVQGKSIDVACHPGYALPKAQTTVTCMENGWSPTPRCIRVKTCSKSSIDIENGFISESQYTYALKEKAKYQCKLGYVTADGETSGSITCGKDGWSAQPTCIKSCDIPVFMNARTKNDFTWFKLNDTLDYECHDGYESNTGSTTGSIVCGYNGWSDLPICYERECELPKIDVHLVPDRKKDQYKVGEVLKFSCKPGFTIVGPNSVQCYHFGLSPDLPICKEQVQSCGPPPELLNGNVKEKTKEEYGHSEVVEYYCNPRFLMKGPNKIQCVDGEWTTLPVCIVEESTCGDIPELEHGWAQLSSPPYYYGDSVEFNCSESFTMIGHRSITCIHGVWTQLPQCVAIDKLKKCKSSNLIILEEHLKNKKEFDHNSNIRYRCRGKEGWIHTVCINGRWDPEVNCSMAQIQLCPPPPQIPNSHNMTTTLNYRDGEKVSVLCQENYLIQEGEEITCKDGRWQSIPLCVEKIPCSQPPQIEHGTINSSRSSQESYAHGTKLSYTCEGGFRISEENETTCYMGKWSSPPQCEG
modifications: Limits from Sushi 6 start to Sushi 15 end (928 by convention, as the candidate feature list is cut off after Sushi 12). Residue 402 is set to Tyr as printed (Y402 variant), whichever allele the entry
On to B1, for which the dissociation constant (Kd) was 15 µM. This lies in the double-digit micromolar range.

By Kd is commonly meant the free concentration of one partner at which half of the binding sites on the other are occupied at equilibrium, for simple one-to-one binding.
